Test results from article PMC3992947.
Each block holds one substance with its values, some of them ahead of it.

Legend:
[1] = target: GST-EnaEVH1 (Drosophila); assay: pull-down; purified proteins; DiaFH1-Cterm and glutathione-Sepharose beads constant, increasing GST-EVH1, 20 min at 25°; supernatants by SDS-PAGE, bound fraction fit to a quadratic equation
[2] = target: Mg-ATP-actin (actin filament barbed ends) (UniProt P68135); assay: TIRF microscopy of single actin filaments; Oregon-green-labeled actin with Drosophila profilin and quantum-dot-clustered biotin-SNAP protein, flow cell at 23°C; barbed end residence time from a single exponential fit
[3] = target: DiaFH1FH2 (Drosophila)

Kd [1]: 13.3 µM
Substance: DiaFH1-carboxyl-terminus (Cterm) (domain or fragment)

mean barbed end residence time [2]: 95.2 s
Substance: QD-biotin-SNAP-EnaΔLinker (natural protein)

concentration of barbed ends nucleated by 10 nM DiaFH1FH2 (from pyrene assays without profilin), 0 to 5.8 μM GST-EnaEVH1 [3]: 0.27 nM
Substance: GST-EnaEVH1 (domain or fragment)
